In the nanobody polyreactivity screen of Harvey et al. (2022):

Experiment: yeast display, Sf9 membrane polyspecificity reagent, FACS + sequencing; frameworks hold sequencing errors
Procedure, shortened: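 Synthetic nanobody libraries on Saccharomyces cerevisiae BJ5465 were galactose-induced for 36–48 hours, stained 1 hour at 4 °C with 10% biotinylated, detergent-solubilized Sf9 membrane reagent and enriched on streptavidin microbeads. FACS then separated cells into low and high (top ~1%) gates by anti-HA (expression) and streptavidin (reagent binding) fluorescence. Genes were colony-PCR amplified, MiSeq 2 × 250 sequenced and CDR-length filtered. A clone's polyreactivity label is that of its gate of origin.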

Sequence	polyreactivity (PSR sort gate)
QVQLVESGGGLVQAGGSLRLSCAASGFTFYYYTMGWYRQAPGKERELVAVITGGGGSTYYADSVKGRFTISRDNAKNTVYLQMNSLKPEDTAVYYCAAKFYGWYRQRGYDYWGQGTQVTVSS	high polyreactivity
QVQLVESGGGVVQAGGSLRLSCAATGFTFAANTKGWYRQPPGKERELVADISGRGDRTSYADSVKGRFTISRDNAKYTVYLQINSLKPEDTAVYYCAVDIFYYSNVHYYYWGQGTQVTVSS	low polyreactivity
QVQLVESGGGLVQAGGSLRLSCAASGFTFQENAMGWYRQATGKERELVAAISKSGGITYYADSVKGRFTISRENAKNNVYLQMNSLKPEDTAVYYCNIGNAYVVYTSGYDYWGQGTQVTVSS	low polyreactivity
QVQLVESGGGLVQAGGSLRLSCAASGITFWYYAMGWYRQAPGKERELVAAITGGDSTNYADSVKGRFTISRDNAKNTVYLQMNSLKPEDTAVYYCNAEGSYEGYDDYWGQGTQVTVSS	high polyreactivity
QVQHVESGGGLFQAGGSLRLSCAASGQNFRPYALGWDRQAPGKERELVAAIRWSDDSTYFAVSVKGRFTILRDNAKNTVYLQLNSLKPEDTAVYYCNARWWYPTYYYWGQGSQVTVSS	high polyreactivity
QVQLVESGGGLVQAGGSLRLSCAASGSIFYWNAMGWYRQAPGKERELVAAINYSGDSTYYADSVKGRFTISRDNAKNTVYLQMNSLKPEDTEVYYCNFDYWGQGTQVTVSS	low polyreactivity
QVQLVESGGGLVQAGGSLRLSCAASGIIFRNYAMGWYRPAPGKEREFVASITKRGGSTYYADSVKGRFTISRDNAKNTVYLQINSLKPEDTAVYYCNTQWYRGRTEYGYWGQGTQVTVSS	high polyreactivity
QVQLVESGGGLVQAGGSLRLSCAASGFTFDTNAMGWYRPAPGKERELVAAISRIGGRTYADSVKGRFTISRDNAKNTVYLQMNSLKPEDTAVYYCAADTTWYPYGYDSWGQGTQVTVSS	low polyreactivity
QVQLQESGGGLVQAGGSLRLSCAASGNISYRTHMGWYRQAPGKERELVASIGGGTTNYADSVKGRFTISRDNAKNTVYLQMNSLKPEDTAVYYCAVVGTTQFRHRYWGQGTQVTASS	high polyreactivity
QVQLVESGGGLVQAGRSLRLSCAASGSIFTYYAMGWYRQGPGQERELVAAINWSGGGTYYADSLKGRFTISRDNAKINVYLQMNSLKPEDTAVYYCNALRKTYRLDYWGQGTQVTLSS	high polyreactivity
QVQLVESGGGLVQAGGSLRLSCAASGSTFVRNAMGWYRQAPGKERELVAAISRSGGRTYYADSVKGRFTISRDNAKNTVYLQMNSLKPEDTAVYYCAADVYDAGVRYDYWGQGTQVTVSS	high polyreactivity
QVQLVESGGGLVQAGGSLRLSCAASGRIFNAYAMGWYRPAPGKERELVAAISSIGGRTYYADSVKGRFTISRDNAKNTVYLQMNSLKPVDTAVYYCAADWSYVRYYYWGQGTQVTVSS	high polyreactivity
QVQLVESGGGLVQAGGSLRLSSAASGSIFAYNDMGWYRQAPGKERELVAAITWSGDSTYYADSVKGRFTISRDNAKNTVYLQMNSLKPEDTAVYYCATDPLFKTSTRWKYDYWGQGTQVTVSS	low polyreactivity
QVQHVESGGGLVQAGGSLRLSCAASGRTFNGYAMGWYRQAPGKERELVAAIRSTTGSTYYADSVKGRFTISRDNAKNTVYLQMNSLKPEETAVYYCAAAYPFYADMDYCGQGTQVTVSS	low polyreactivity
QVQLVESGGGLVQAGGSLRLSCAASGSTFPQNDMGWYRQAPGKERELVAAITRSAGSTYYADSVKGRFTISRDNAKNTVYLQMNSLKPEDTAVYYCNTGRQRGDGWGQGTQVTVSS	high polyreactivity
QVQLVESGGGLVQAGGSLRLSCPASGSTFYYYAMGWYRQAPGKERELVASISDDGSTNYADSVKGRFTISRDNAKNTVYLQMNSLKPEDTAVYYCAAVWWHQFGSAWYQMGYWGQGTQVTVSS	low polyreactivity

Sequence	polyreactivity (PSR sort gate)
QVQLVESGGGLVQAGGSLRLSCAASGRIFPFYVMGWYRQAPGKERELVATINWSGGSTYYADSVKGRFTISRDNAKNTVYLQMNSLKPEDTAVYYCNAAPSDDYDYWGQGTQVTVSS	low polyreactivity
QVQLLESGGGLVQAGGSLRLSCAASGLIFERYAMGWYRQAPGKERELVAAITRRGGSTYDADSVKGRFTISRDNAKNTVYFQMNSLKPEDTAVNYCAAGRPQDTEFDYWGLGTQVTVSS	high polyreactivity
QVQLVESGGGLVQAGGSLRLSCAASGFTFARYAMGWYRQAPGKERELVAAISWTGARTYYADSVKGRFTISRDNAKNTVYLQMNSLKPEDTAVYYCNAVSGSSNFDYWGQGTQVTVSS	high polyreactivity
QVQLVESGGGLVQAGGSLRLRSAASGYTFSIYAMGRYRQATGKERELVASISWSAGNTYYADYVKGRFTFSLDNAKNTVYLQMNSLKPEDTAVYYCAVPRRLIWYRPSSYDYWGQGTQVTVSS	low polyreactivity
QVQLVESGGGLVQAGGSLRLSCAASGRTFKQYAMGWYRQAPGKERELVAAISRTGGRTYYADSVKGRFTISRDNAKNTVYLQMNSLKPEDTAVYYCNAVYYWYKGDYWGQGTQVTVSS	high polyreactivity
QVQLVESGGGLVQAGGSLRLSCAASGSTFNFNAMGWYRQAPRKERELVAAISSSGGSTYYADSVKGRFTISRDNAKNTVYLQMNSLKPEDTAVYYCATVRRKSPLYYYWGQGTQVTVSS	high polyreactivity
QFQLVESGGGLVQAGGSLRLSCAAYGFTFYAYTMGWYRQAPGKERELVAAIRTGSSTYYADSVKGRFTISRDNAKNTVYLQMNSMKPQDTAVYYCAAPRWRRPYRYDYWGQGTQVTVSS	high polyreactivity
QVQLVESGGGLVQAGGSLRLSCAASGSTFPQNVMGWYRQAPGKERELVAAITRSAGSTYYADSVKGRFTISRDNAKNTVYLQMNSLKPEDTADYYCNTGRQRGDCWGQGTQVTVSS	high polyreactivity
QVQLVESWGGLDQAGGSLRLSCAASGRILRTYAMGWYRQAPGKERELVAAITWSGGSTYYADSVKGRFTISRDNAKNTVYLQMNSLKPEDTAVYDCNALTPGYRIYDYWGQGTQVTVSS	high polyreactivity
QVQLVESGGGLVQAGCSLRLSCASSGSIFGRYAMGWYRQAPGKERELVAAISRGGSTNYADSVKGRFTISRDNAKNTVYLQLNSLKPEDTAVYYCNRKPYYVSSTRYDYWGQGSQVTVSS	high polyreactivity
QVQLVESGGGLVQAGGSLRLSCAASGITFYIYAMGWYRQAPGKERELVATISWSDGRTYYADSVKGRFTISRDNAKTTVYLQMNSLKPEDTAVYYCAADWWYYQFDYEYWGQGTQVTVSS	low polyreactivity
QVQLVESGGGLVQAGGSLRLICSASGRTFAGYVMGWYRQAHGKERELVAAINASGGSTYYADSVKGRFTISRDNAKNTVYLQKNILKPEDTAVYYCAAARLGSDITRRYYYWGQGTQVTVSS	high polyreactivity
QVQLVESGGGLVQAGGSLRLSCAASGSIFPQNAMGWYRQAPGKERELVASITSRGGITNYADSVKGRFTISRDNAKNTVYLQMNSLKPEDSAVYYCAADLYIYPYDYWGQGTQVTVSS	low polyreactivity
QVQLVESGGGLVQAGGSLRLSCAASGFTFYRYAMGWYRPAPGKERELVAAITRSGSRTYYADSVKGRFTISRDNAKNTVYLQMNSLKPEDTAVYYCNTDGGDHPTARYGYWGQGTQVTVSS	high polyreactivity
QVQLQESGGGLVQAGGSLRLSCAPSGSISRYYDMGWYRQAPGKEREYVAGISGGAITYYADSVKGRFTISRDNAKNTVYLQMNSLKPEDTAVYYCAADTCVYQYHSYWGQGTQVTVSS	low polyreactivity
QVQLVESGGGLVQAGGSLRLSCASSGSTFVYNVMGRYRQAPGKERDLVAAISRSGGSTYYADSVKGRFTISRDNAKNSVYLQMNSLKPEDTAVYYCAKRVYGWWYDHWGQGTQVTVSS	high polyreactivity
